Assay results published in patent US20250127814A1 (UNIVERSITY OF CHICAGO, published 2025).
Substitutions are numbered along the chain they refer to. Values belong to the binder of their own block, whether it stands above or below them.

Columns and labels:
[1] = molecular target: T1, Sur-N; assay: Western blot of recombinant CPC domains, Fab as primary reagent, anti-human F(ab')2 IgG-HRP [panel B]
T1 construct: Specificity lane in the Western blots; also called Survivin-N (N-term); Sur N: 1-120
Procedure: (§1) Recombinant CPC targets Survivin-N(N-term), Borealin-N(N-term), Borealin-C(C-term) and INCENP-N(N-term) domains were run on SDS-PAGE and transferred into PVDF membrane. […] The assay was developed by using a secondary anti-human-F(ab′)2 IgG-HRP reagent
(§2) Membranes were stained with Ponceau S dye to verify correct transfer of the proteins, were briefly washed with ddH2O and blocked with 4% skimmed milk in TBS-T containing 0.05% Tween20 for 30 min. at RT on the shaker. Blocking solution was discarded and membranes were incubated with Borealin Fabs as primary detection reagents at concentration 5-10 µg/ml, in blocking buffer at 4 C O/N on the shaker. Membranes were washed 3 times with TBS-T and incubated with secondary anti-human FAB′2 specific HRP-conjugated IgG (diluted 1:10,000 in blocking buffer) for 45 minutes at RT, shaking. Membranes were washed again 3× with TBS-T, developed with ECL chemiluminescent substrate and visualized with the Biorad imaging instrument (FIG. 10).

[2] = molecular target: T2, INC-N; assay: as above
T2 construct: Specificity lane in the Western blots; also called INCENP-N (N-term); Inc: 1-58
T2 chain: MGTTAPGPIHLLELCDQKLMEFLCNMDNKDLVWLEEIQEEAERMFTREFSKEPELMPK
Procedure: as §1, §2

[3] = molecular target: T3, Borealin N-terminal domain (20-88) (human, UniProt Q53HL2 20-88, biotinylated on the Avi-tag (co-expression with BirA)); assay: as above
T3 construct: range 20-88; The construct carries His- and Avi-tags; Expressed in E. coli; Immobilised via neutravidin (ELISA) or His-tag/NTA chip (SPR); also called Bor-N
T3 sequence (looked up): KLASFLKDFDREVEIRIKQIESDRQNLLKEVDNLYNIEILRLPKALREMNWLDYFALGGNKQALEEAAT
Procedure: as §1, §2

[4] = molecular target: T4, Borealin C-terminal domain (207-280) (human, UniProt Q53HL2 207-280, biotinylated on the Avi-tag (co-expression with BirA)); assay: SPR, His-tagged target on NTA chip, 2-fold dilutions of the Fab injected, 1:1 Langmuir fit [panel B, top]
T4 construct: range 207-280; The construct carries His- and Avi-tags; Expressed in E. coli; Immobilised via neutravidin (ELISA) or His-tag/NTA chip (SPR); also called Bor-C
T4 sequence (looked up): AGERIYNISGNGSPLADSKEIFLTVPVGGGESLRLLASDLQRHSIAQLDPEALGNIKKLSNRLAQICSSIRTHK
Procedure: (§3) The targets were immobilized onto a nitrilotriacetic acid (NTA) sensor chip via His-tag. 2-fold serial dilutions of the Fab were injected following ligand immobilization on the sensor chip. For each kinetic assay at least five dilutions of the Fab were tested. The data were fitted using 1:1 Langmuir Model to obtain the on-rate, off-rate and the affinity (KD) of the Fab-target interaction.

[5] = molecular target: T3, Borealin N-terminal domain (20-88); assay: single-point Fab ELISA, 50 nM biotinylated target on neutravidin, 200 nM Fab, protein L-HRP [panel A]
Procedure: (§4) To rapidly reconfirm the binding and specificity of the obtained Fabs after reformatting into the expression vectors single-point Fab ELISA was performed (FIG. 2). Briefly, 50 nM Avi-tagged targets were immobilized on the prepared NAV-coated and blocked with 0.5% BSA in PBS 96-well ELISA plates. The target coated plates were washed with appropriate buffer (TBST or PBST) and were incubated with 200 nM Fab for 20 minutes and then washed. The washed plates were incubated with protein L conjugated with HRP (1:5000 diluted in TBST) for 30 minutes. Plates were washed and the reaction was developed using the TMB chromogenic substrate (Thermofisher) and subsequently quenched with 1M HCl. Absorbance was read at 450 nm on Epoch plate reader.

[6] = molecular target: T4, Borealin C-terminal domain (207-280); assay: SPR, His-tagged target on NTA chip, 2-fold dilutions of the Fab injected, 1:1 Langmuir fit [panel B, middle]
Procedure: as §3

[7] = molecular target: T4, Borealin C-terminal domain (207-280); assay: SPR, His-tagged target on NTA chip, 2-fold dilutions of the Fab injected, 1:1 Langmuir fit [panel B, bottom]
Procedure: as §3

[8] = molecular target: T3, Borealin N-terminal domain (20-88); assay: single-point Fab ELISA, 50 nM biotinylated target on neutravidin, protein L-HRP [panel A]
Procedure: as §4

[9] = molecular target: T3, Borealin N-terminal domain (20-88); assay: SPR, His-tagged target on NTA chip, 2-fold dilutions of the Fab injected, 1:1 Langmuir fit [panel A]
Procedure: as §3

[10] = molecular target: T4, Borealin C-terminal domain (207-280); assay: Western blot of recombinant CPC domains, Fab as primary reagent, anti-human F(ab')2 IgG-HRP [panel A]
Procedure: as §1, §2

[11] = molecular target: T4, Borealin C-terminal domain (207-280); assay: single-point Fab ELISA, 50 nM biotinylated target on neutravidin, protein L-HRP [panel B]
Procedure: as §4

T1 sequence (chain, as listed by the source limits assumed): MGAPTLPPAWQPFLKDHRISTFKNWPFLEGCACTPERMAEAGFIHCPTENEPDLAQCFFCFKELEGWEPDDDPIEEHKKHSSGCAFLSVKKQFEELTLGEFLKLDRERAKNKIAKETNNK

B5: BOR-N-65 (Fab, V domains shown)
VH: EVQLVESGGGLVQPGGSLRLSCAASGFNFSSSSIHWVRQAPGKGLEWVASISSSSGSTSYADSVKGRFTISADTSKNTAYLQMNSLRAEDTAVYYCARESSQTKKYWYWVVQWYTAMDYWGQGTLVTVSS
VL: DIQMTQSPSSLSASVGDRVTITCRASQSVSSAVAWYQQKPGKAPKLLIYSASSLYSGVPSRFSGSRSGTDFTLTISSLQPEDFATYYCQQYSQWLITFGQGTKVEIKR
notes: also called BOR-N-65 Fab
binding result [8]: no binding (tested: 200 nM)

B6: BOR-N-49 (Fab, V domains shown)
VH: EVQLVESGGGLVQPGGSLRLSCAASGFNVSSYSIHWVRQAPGKGLEWVASIYSSSSSTYYADSVKGRFTISADTSKNTAYLQMNSLRAEDTAVYYCARRYYHYRYPLFWGWYGMDYWGQGTLVTVSS
VL: B5 VL with Y91S, S92F, Q93W, L95P
notes: also called BOR-N-49 Fab
binding result [5]: binds

B7: BOR-N-48 (Fab, V domains shown)
VH: EVQLVESGGGLVQPGGSLRLSCAASGFNFSYSSIHWVRQAPGKGLEWVASIYPYSGSTYYADSVKGRFTISADTSKNTAYLQMNSLRAEDTAVYYCARKQVSGWWWYYGFDYWGQGTLVTVSS
VL: B5 VL with Y91S, S92Y, Q93W, L95P
notes: also called BOR-N-48 Fab
Kd [9]: 0.4 nM
binding result [10]: no binding (tested: 5-10 ug/ml (the text prints 'lg/ml'))

B8: BOR-C-58 (Fab, V domains shown)
VH: EVQLVESGGGLVQPGGSLRLSCAASGFNVSSYSIHWVRQAPGKGLEWVASISPYYGYTSYADSVKGRFTISADTSKNTAYLQMNSLRAEDTAVYYCARHYYYGFSWFSSGYAMDYWGQGTLVTVSS
VL: B5 VL with Y91G, Q93S, W94S, L95P
notes: also called BOR-C-58 Fab
binding result [11]: no binding (tested: 200 nM)

Further lines, with some results ahead:

Kd [4]: 11.6 nM
B1: BOR-C-56 (Fab, V domains shown)
VH: EVQLVESGGGLVQPGGSLRLSCAASGFNISSSSIHWVRQAPGKGLEWVAYISSYSGSTYYADSVKGRFTISADTSKNTAYLQMNSLRAEDTAVYYCARYYHSPLWYYSYSGMDYWGQGTLVTVSS
VL: DIQMTQSPSSLSASVGDRVTITCRASQSVSSAVAWYQQKPGKAPKLLIYSASSLYSGVPSRFSGSRSGTDFTLTISSLQPEDFATYYCQQDYSWSPITFGQGTKVEIKR
notes: also called BOR-C-56 Fab
binding result [1]: no binding (tested: 5-10 ug/ml (the text prints 'lg/ml'))
binding result [2]: no binding (tested: 5-10 ug/ml (the text prints 'lg/ml'))
binding result [3]: no binding (tested: 5-10 ug/ml (the text prints 'lg/ml'))

binding result [5]: binds
B2: BOR-N-51 (Fab, V domains shown)
VH: EVQLVESGGGLVQPGGSLRLSCAASGFNVYSYSIHWVRQAPGKGLEWVASIYSSYSYTSYADSVKGRFTISADTSKNTAYLQMNSLRAEDTAVYYCARKYHFKPTYWGAMDYWGQGTLVTVSS
VL: B1 VL with D91S, Y92S, S93L, W94Y, S95Y, I97L
notes: also called BOR-N-51 Fab

Kd [6]: 8.5 nM
B3: BOR-C-61 (Fab, V domains shown)
VH: EVQLVESGGGLVQPGGSLRLSCAASGFNFYSSYIHWVRQAPGKGLEWVASISSSSGSTSYADSVKGRFTISADTSKNTAYLQMNSLRAEDTAVYYCARRSGGGLDYWGQGTLVTVSS
VL: B5 VL with Y91S, Q93S, W94S
notes: also called BOR-C-61 Fab

Kd [7]: 0.6 nM
B4: BOR-C-64 (Fab, V domains shown)
VH: EVQLVESGGGLVQPGGSLRLSCAASGFNVYYSSIHWVRQAPGKGLEWVASISSYYGSTYYADSVKGRFTISADTSKNTAYLQMNSLRAEDTAVYYCARWKWVAMDYWGQGTLVTVSS
VL: B5 VL with Y91D, S92L, Q93F, W94M, L95P
notes: also called BOR-C-64 Fab

binding result [5]: binds
B9: BOR-N-50 (Fab, V domains shown)
VH: EVQLVESGGGLVQPGGSLRLSCAASGFNVYSYSIHWVRQAPGKGLEWVASIYSYSGYTYYADSVKGRFTISADTSKNTAYLQMNSLRAEDTAVYYCARSTYPHVYLYFGLDYWGQGTLVTVSS
VL: B5 VL with Y91S, S92Y, Q93Y, L95P, I96V
notes: also called BOR-N-50 Fab
